Measurements: US20240400720A1 (NOVIMMUNE S A, published 2024)

How the values were obtained:
human CD47 [1] = target: T1, human CD47 (human, UniProt Q08722 19-141, limits assumed); experiment: CD47/SIRPα binding assay, inhibition of SIRPα binding to CD47; format not stated for this figure
T1 construct: also called hCD47

human CD47 [2] = target: T1, human CD47; experiment: surface plasmon resonance
human CD47 [3] = target: T1, human CD47; experiment: screening of Examples 3 to 6
[4] = target: T2, human CD47 on the cell surface (human, UniProt Q08722 19-323); experiment: CD47-SIRPα competitive binding assay: His-tagged soluble human SIRPα (200 ng/ml) on hCD47-transfected CHO cells, antibody 3.3 pM-330 nM; blocked ligand SIRPα
T2 construct: whole, on cells; also called huCD47; native CD47

[5] = target: T3, cynomolgus monkey CD47 on CD4+ T cells (cynomolgus monkey, UniProt A0A5F8AK49 19-323 (rhesus entry)); experiment: flow cytometry on CD4+ T cells in cynomolgus PBMC
T3 construct: whole, on cells; also called cynomolgus CD47

[6] = target: T2, human CD47 on the cell surface; experiment: flow cytometry, CHO cells stably transfected with human CD47, antibody 10 µg/ml, Cy-5 anti-human Fc; non-transfected CHO cells as control
Description: Non-transfected CHO cells were used as control. In brief, purified CD47 Mabs were incubated with CHO-huCD47 cells at a final concentration of 10 μg/ml for 30 minutes. After two washes, bound CD47 antibodies were detected using a Cy-5 conjugated anti-human Fc secondary antibody (BD biosciences).

human CD47 [7] = target: T1, human CD47; experiment: affinity maturation by phage display on hCD47; positive in hCD47-SIRPα inhibition screen, reformatted as IgG
human CD47 [8] = target: T1, human CD47; experiment: affinity ranking told with the hemagglutination test
Description: CD47 MAbs were tested for their ability to induce homotypic clustering of erythrocytes (hemagglutination). 10 microliters of human whole blood was diluted in 40 microliters of antibody solution in PBS at different concentrations (range: 0.003 microg/ml to 50 microg/ml final Mab concentration) in flat-bottom 96 well plates. The blood-antibody mix was incubated O/N at 37° C. without shaking. At the end of the incubation, the plates were agitated manually, tilted at about […], and let to rest for about 10 minutes.

human CD19 = target: T4, human CD19 (human, UniProt P15391 20-291, limits assumed); experiment: affinity maturation of B7
T4 construct: also called hCD19
T4 sequence (looked up): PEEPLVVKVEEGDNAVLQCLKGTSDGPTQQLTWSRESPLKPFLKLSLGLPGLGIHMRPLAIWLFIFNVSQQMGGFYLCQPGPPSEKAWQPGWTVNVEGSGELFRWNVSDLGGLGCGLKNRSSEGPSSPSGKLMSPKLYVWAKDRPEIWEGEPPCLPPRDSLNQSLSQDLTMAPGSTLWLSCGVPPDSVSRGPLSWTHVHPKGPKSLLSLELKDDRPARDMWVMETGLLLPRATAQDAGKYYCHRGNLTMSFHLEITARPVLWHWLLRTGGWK

human CD19 on Raji cells [9] = target: T5, human CD19 on Raji cells (human, UniProt P15391 20-556); experiment: FACS on Raji cells (CD19-positive), dose-response
T5 construct: whole, on cells; also called native form of hCD19
T5 sequence (looked up): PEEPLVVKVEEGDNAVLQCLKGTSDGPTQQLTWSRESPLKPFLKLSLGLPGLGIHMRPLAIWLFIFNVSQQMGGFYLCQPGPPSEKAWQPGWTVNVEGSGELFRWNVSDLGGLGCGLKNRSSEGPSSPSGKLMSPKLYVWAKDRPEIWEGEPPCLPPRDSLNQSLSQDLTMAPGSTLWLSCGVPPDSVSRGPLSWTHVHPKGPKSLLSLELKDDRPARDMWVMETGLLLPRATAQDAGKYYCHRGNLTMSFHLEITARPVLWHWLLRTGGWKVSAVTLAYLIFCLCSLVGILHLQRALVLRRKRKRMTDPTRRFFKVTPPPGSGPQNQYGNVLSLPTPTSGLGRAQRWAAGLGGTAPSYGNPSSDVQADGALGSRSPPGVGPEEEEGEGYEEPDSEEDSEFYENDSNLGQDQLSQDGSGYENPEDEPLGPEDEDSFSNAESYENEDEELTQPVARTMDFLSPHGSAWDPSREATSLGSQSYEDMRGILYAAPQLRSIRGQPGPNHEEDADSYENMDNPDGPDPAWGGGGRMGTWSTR

[10] = target: T2, human CD47 on the cell surface; experiment: adsorption on erythrocytes: antibody in human whole blood, 30 min at 37 °C, antibody left in plasma measured by ELISA
Description: (§1) With more than 5 billion cells per ml of blood, and 25,000 CD47 molecules per cell, erythrocytes represent potentially the major antigen sink for CD47-binding antibodies. To assess the effect of erythrocyte adsorption, CD47 antibodies were incubated with whole blood. Following incubation, the fraction of CD47 antibodies remaining in the plasma was determined by ELISA.
(§2) In brief, 200 μl of whole blood containing an anti-coagulant was mixed with 20 μl of antibody ([…] in PBS) and incubated for 30 minutes at 37° C. with shaking. The plasma was then separated from the cells by centrifugation, and the concentration of unbound antibody determined by ELISA.

human CD19 on Raji cells [11] = target: T5, human CD19 on Raji cells; experiment: FACS on Raji cells (CD19-positive, CD47-positive), human IgG1 format, 0.01-10 µg/ml; both targets are on the cells, the filing ascribes the binding to co-engagement driven mainly by the CD19 arm
Description: (§3) The graphs in FIGS. 9A-9C present FACS profiles generated with monovalent and bispecific antibodies binding to CD19-negative B-NHL cells (DS-1) and CD19-positive Burkitt lymphoma cells (Raji). All antibodies were human IgG1 format and were tested at four concentrations as indicated.
(§4) Two types of cells were used, a CD19-positive Burkitt lymphoma cell line Raji (expressing about 65,000 CD47 molecules per cell) and the CD19-negative B-NHL cell line DS-1 (expressing about 150,000 CD47 molecules per cell) as a control.

[12] = target: T2, human CD47 on the cell surface; experiment: FACS on DS-1 cells (CD19-negative, CD47-positive), human IgG1 format, 0.01-10 µg/ml
Description: as §3, §4

[13] = target: T2, human CD47 on the cell surface; experiment: adsorption on erythrocytes: antibody 10 µg/ml in human whole blood, 30 min at 37 °C, antibody left in plasma measured by ELISA
Description: as §1, §2

B1: 5A3 antibody (antibody, human IgG1, kappa, V domains shown)
VH: not shown
VL: DIQMTQSPSSLSASVGDRVTITCQASQDINKYLNWYQQKPGKAPKLLIYGASRLETGVPSRFSGSGSGTDFTFTISSLQPEDIATYYCQQKHPRGPRTFGQGTKVEIKR
notes: IgG, common heavy chain, kappa light chain
IC50 (read off the curve) (human CD47 [1]): ~0.08 nM | Kd (human CD47 [2]): ~23.6 nM

B2: 5A3-M5 antibody (antibody, human IgG1, kappa, V domains shown)
VH: not shown
VL: DIQMTQSPSSLSASVGDRVTITCQASQDINKYLNWYQQKPGKAPKLLIYGASRLETGVPSRFSGSGSGTDFTFTISSLQPEDIATYYCQQKHPRYPRTFGQGTKVEIKR
notes: IgG, variant of 5A3 with changed VL
IC50 (read off the curve) (human CD47 [1]): ~3 nM | Kd (human CD47 [2]): ~2840 nM

B3: Ka3 antibody (antibody, human IgG1, kappa, V domains shown)
VH: not shown
VL: DIQMTQSPSSLSASVGDRVTITCRASQSISSYLNWYQQKPGKAPKLLIYAASSLQSGVPSRFSGSGSGTDFTLTISSLQPEDFATYYCQQMHPRAPKTFGQGTKVEIKR
notes: IgG, kappa (IGVK1-39)
binding result (human CD47 [3]): binds | binding result [4]: binds

B4: Ke8 antibody (antibody, human IgG1, kappa, V domains shown)
VH: not shown
VL: DIQMTQSPSSLSASVGDRVTITCRASQSISSYLNWYQQKPGKAPKLLIYAASSLQSGVPSRFSGSGSGTDFTLTISSLQPEDFATYYCQQFHKRRPQTFGQGTKVEIKR
notes: IgG, kappa (IGVK1-39)
binding result (human CD47 [3]): binds | binding result [5]: no binding (tested: 0.005 mg/ml) | binding result [4]: binds

B5: Ke8A2 antibody (antibody, human IgG1, kappa, V domains shown)
VH: not shown
VL: DIQMTQSPSSLSASVGDRVTITCRASQSIDRYLNWYQQKPGKAPKLLIYAASSLQSGVPSRFSGSGSGTDFTLTISSLQPEDFATYYCQQKHPRGPRTFGQGTKVEIKR
notes: IgG; also called KE8-P2A2; KE8A25
binding result [6]: binds | binding result (human CD47 [7]): binds

B6: Ke8A3 antibody (antibody, human IgG1, kappa, V domains shown)
VH: not shown
VL: DIQMTQSPSSLSASVGDRVTITCRVSQSISKYLNWYQQKPGKAPKLLIYAASSLQSGVPSRFSGSGSGTDFTLTISSLQPEDFATYYCQQRHPRGPSTFGQGTKVEIKR
notes: IgG
binding result (human CD47 [8]): binds | binding result [4]: binds

B7: Kc4 antibody (antibody, human IgG1, lambda, V domains shown)
VH: not shown
VL: QSALTQPASVSGSPGQSITISCTGTSSDVGGYNYVSWYQQHPGKAPKLMIYEVSNRPSGVSNRFSGSKSGNTASLTISGLQAEDEADYYCSSYDWWFRPKVFGGGTKLTVLG
notes: IgG, lambda (IGVL2-14)
binding result (human CD47 [3]): binds | binding result [4]: binds

B8: D11 antibody (antibody, human IgG1, lambda, V domains shown)
VH: not shown
VL: NFMLTQPHSVSESPGKTVTISCTRSSGSIDDKFVQWYQQRPGSSPTTVIYYDNIRPSGVPDRFSGSIDSSSNSASLTISGLKTEDEADYYCQSYDASLYGWVFGGGTKLTVLG
notes: anti-CD19, IgG, lambda; also called L7B7_D11
binding result (human CD19): binds | binding result (human CD19 on Raji cells [9]): binds

B9: C2 antibody (antibody, human IgG1, lambda, V domains shown)
VH: not shown
VL: NFMLTQPHSVSESPGKTVTISCTRSSGSIEDKYVQWYQQRPGSSPTIVIYYDNERPSGVPDRFSGSIDSSSNSASLTISGLKTEDEADYYCQTYDQSLYGWVFGGGTKLTVLG
notes: anti-CD19, IgG, lambda; also called L7B7_C2; L7B7_c2
EC50 (read off the curve) (human CD19 on Raji cells [9]): ~0.4 nM | binding result [10]: no binding (tested: 10 µg/ml)

B10: 5A3M5xC2 (bispecific antibody, human IgG1, kappa, lambda)
common heavy chain: not shown
kappa light chain (5A3-M5, anti-CD47): not shown
lambda light chain (C2, anti-CD19): NFMLTQPHSVSESPGKTVTISCTRSSGSIEDKYVQWYQQRPGSSPTIVIYYDNERPSGVPDRFSGSIDSSSNSASLTISGLKTEDEADYYCQTYDQSLYGWVFGGGTKLTVLGQPKAAPSVTLFPPSSEELQANKATLVCLISDFYPGAVTVAWKADSSPVKAGVETTTPSKQSNNKYAASSYLSLTPEQWKSHRSYSCQVTHEGSTVEKTVAPTECS
notes: also called CD47xCD19 BsAb 5A3M5xC2; bispecific antibody 5A3-M5×C2
binding result (human CD19 on Raji cells [11]): binds | binding result [12]: binds

B11: Ke8G11xC2 (bispecific antibody, human IgG1, kappa, lambda)
common heavy chain: not shown
kappa light chain (Ke8G11, anti-CD47): DIQMTQSPSSLSASVGDRVTITCRASQSIGRYLNWYQQKPGKAPKLLIYAASSLQSGVPSRFSGSGSGTDFTLTISSLQPEDFATYYCQQMHPRGPKTFGQGTKVEIKRTVAAPSVFIFPPSDEQLKSGTASVVCLLNNFYPREAKVQWKVDNALQSGNSQESVTEQDSKDSTYSLSSTLTLSKADYEKHKVYACEVTHQGLSSPVTKSFNRGEC
lambda light chain (C2, anti-CD19): NFMLTQPHSVSESPGKTVTISCTRSSGSIEDKYVQWYQQRPGSSPTIVIYYDNERPSGVPDRFSGSIDSSSNSASLTISGLKTEDEADYYCQTYDQSLYGWVFGGGTKLTVLGQPKAAPSVTLFPPSSEELQANKATLVCLISDFYPGAVTVAWKADSSPVKAGVETTTPSKQSNNKYAASSYLSLTPEQWKSHRSYSCQVTHEGSTVEKTVAPTECS
notes: also called CD47xCD19 BsAb Ke8G11xC2; bispecific antibody Ke8G11×C2
binding result (human CD19 on Raji cells [11]): binds

B12: Ka3xC2 (bispecific antibody, human IgG1, kappa, lambda)
common heavy chain: not shown
kappa light chain (Ka3, anti-CD47): not shown
lambda light chain (C2, anti-CD19): NFMLTQPHSVSESPGKTVTISCTRSSGSIEDKYVQWYQQRPGSSPTIVIYYDNERPSGVPDRFSGSIDSSSNSASLTISGLKTEDEADYYCQTYDQSLYGWVFGGGTKLTVLGQPKAAPSVTLFPPSSEELQANKATLVCLISDFYPGAVTVAWKADSSPVKAGVETTTPSKQSNNKYAASSYLSLTPEQWKSHRSYSCQVTHEGSTVEKTVAPTECS
notes: m75 has the same CD47 arm but no named CD19 arm; also called CD47xCD19 BsAb Ka3xC2; bispecific antibody Ka3×C2
binding result (human CD19 on Raji cells [11]): binds | binding result [12]: binds

B13: 5A3M3xC2 (bispecific antibody, human IgG1, kappa, lambda)
common heavy chain: not shown
kappa light chain (5A3-M3, anti-CD47): not shown
lambda light chain (C2, anti-CD19): NFMLTQPHSVSESPGKTVTISCTRSSGSIEDKYVQWYQQRPGSSPTIVIYYDNERPSGVPDRFSGSIDSSSNSASLTISGLKTEDEADYYCQTYDQSLYGWVFGGGTKLTVLGQPKAAPSVTLFPPSSEELQANKATLVCLISDFYPGAVTVAWKADSSPVKAGVETTTPSKQSNNKYAASSYLSLTPEQWKSHRSYSCQVTHEGSTVEKTVAPTECS
notes: m69 has the same CD47 arm but no named CD19 arm; also called bispecific antibody 5A3-M3×C2
binding result [13]: binds
